Values of other authors, collected in paper PMC9590617.

Key:
NPFFR2 (Homo sapiens) = NPFFR2 (Homo sapiens) (UniProt Q9Y5X5)
NPFFR1 (Homo sapiens) = NPFFR1 (Homo sapiens) (UniProt Q9GZQ6)
UniProt Q9GZQ6, sequence (Q9GZQ6 whole entry): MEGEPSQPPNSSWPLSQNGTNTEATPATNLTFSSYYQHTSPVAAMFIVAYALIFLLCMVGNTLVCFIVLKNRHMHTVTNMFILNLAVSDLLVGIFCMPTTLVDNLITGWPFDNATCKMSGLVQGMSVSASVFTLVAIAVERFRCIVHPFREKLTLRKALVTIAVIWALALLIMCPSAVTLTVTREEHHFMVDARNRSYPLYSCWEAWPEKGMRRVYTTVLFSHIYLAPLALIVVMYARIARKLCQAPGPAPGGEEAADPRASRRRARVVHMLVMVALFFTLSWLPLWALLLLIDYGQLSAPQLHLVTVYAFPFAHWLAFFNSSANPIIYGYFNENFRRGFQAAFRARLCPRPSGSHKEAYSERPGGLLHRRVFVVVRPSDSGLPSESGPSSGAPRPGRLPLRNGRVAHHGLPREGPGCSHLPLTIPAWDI

UniProt Q9Y5X5, sequence (Q9Y5X5 whole entry): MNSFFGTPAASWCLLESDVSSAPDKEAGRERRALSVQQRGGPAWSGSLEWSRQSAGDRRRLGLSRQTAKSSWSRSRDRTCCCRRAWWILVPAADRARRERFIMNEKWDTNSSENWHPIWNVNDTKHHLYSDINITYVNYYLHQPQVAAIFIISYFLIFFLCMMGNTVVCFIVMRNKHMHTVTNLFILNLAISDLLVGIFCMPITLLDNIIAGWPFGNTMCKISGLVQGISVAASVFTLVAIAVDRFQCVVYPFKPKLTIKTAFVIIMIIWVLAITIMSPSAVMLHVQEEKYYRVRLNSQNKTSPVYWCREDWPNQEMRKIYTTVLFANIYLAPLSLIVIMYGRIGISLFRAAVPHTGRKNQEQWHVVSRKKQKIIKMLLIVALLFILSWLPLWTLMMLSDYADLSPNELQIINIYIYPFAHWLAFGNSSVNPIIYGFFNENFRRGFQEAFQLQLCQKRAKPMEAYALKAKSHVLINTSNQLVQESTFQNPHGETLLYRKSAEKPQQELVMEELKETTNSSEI

Kd (NPFFR2 (Homo sapiens)): 0.37 nM
Kd (NPFFR1 (Homo sapiens)): 1.13 nM
Substance: Neuropeptide FF (from UniProt O15130)
